According to paper PMC6679980 (Biochimica et biophysica acta. General subjects, 2019):

Molecular target: GST-FL-UBQLN1 (full-length wild-type human UBQLN1 GST-fusion protein) (human, UniProt Q9UMX0 1-589)
Assay: pull-down

Sequence of GST-FL-UBQLN1 (full-length wild-type human UBQLN1 GST-fusion protein) (Q9UMX0 whole entry, the tested form may be a part): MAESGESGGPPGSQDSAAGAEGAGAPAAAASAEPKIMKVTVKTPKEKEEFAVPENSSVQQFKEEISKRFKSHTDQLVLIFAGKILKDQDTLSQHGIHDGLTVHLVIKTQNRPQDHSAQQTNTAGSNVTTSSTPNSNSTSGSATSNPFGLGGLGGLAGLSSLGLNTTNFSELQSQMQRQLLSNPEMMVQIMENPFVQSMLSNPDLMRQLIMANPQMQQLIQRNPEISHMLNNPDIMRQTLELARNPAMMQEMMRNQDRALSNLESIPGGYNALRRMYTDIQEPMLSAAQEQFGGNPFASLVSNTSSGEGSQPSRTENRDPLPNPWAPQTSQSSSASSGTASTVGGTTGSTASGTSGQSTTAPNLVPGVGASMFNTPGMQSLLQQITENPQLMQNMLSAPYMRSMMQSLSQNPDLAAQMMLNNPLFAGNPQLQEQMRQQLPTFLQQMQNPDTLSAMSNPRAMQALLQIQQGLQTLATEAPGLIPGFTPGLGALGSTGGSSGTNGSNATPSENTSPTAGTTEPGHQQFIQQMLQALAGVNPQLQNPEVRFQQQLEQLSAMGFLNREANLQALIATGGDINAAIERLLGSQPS

- binding result: binds
B1: Full-length human S5a proteasome subunit, His-tagged (natural protein, UniProt P55036 1-377, looked up)
chain: MVLESTMVCVDNSEYMRNGDFLPTRLQAQQDAVNIVCHSKTRSNPENNVGLITLANDCEVLTTLTPDTGRILSKLHTVQPKGKITFCTGIRVAHLALKHRQGKNHKMRIIAFVGSPVEDNEKDLVKLAKRLKKEKVNVDIINFGEEEVNTEKLTAFVNTLNGKDGTGSHLVTVPPGPSLADALISSPILAGEGGAMLGLGASDFEFGVDPSADPELALALRVSMEEQRQRQEEEARRAAAASAAEAGIATTGTEDSDDALLKMTISQQEFGRTGLPDLSSMTEEEQIAYAMQMSLQGAEFGQAESADIDASSAMDTSEPAKEEDDYDVMQDPEFLQSVLENLPGVDPNNEAIRNAMGSLASQATKDGKKDKKEEDKK
